The values that follow come from patent publication US20090172842.

The target in this data set is T1, endogenous tobacco RUBISCO small subunit, P69249.
T1 chain: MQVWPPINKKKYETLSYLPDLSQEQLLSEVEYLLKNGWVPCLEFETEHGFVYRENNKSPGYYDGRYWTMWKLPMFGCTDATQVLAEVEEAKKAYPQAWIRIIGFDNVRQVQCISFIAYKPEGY

B1: Griffithsia monilis RUBISCO large subunit with C-terminal 6-His tag, product of the chloroplast transgene cpGMNrbcL (pTCP104 tobacco) (protein)
chain: MANSVEERTRIKNERYESGVIPYAKMGYWDPNYAVKDTDILALFRVSPQPGVDPVEASAAVAGESSTATWTVVWTDLLTACDLYRAKAYKVESVPNTSDQYFAYISYDIDLFEEGSIANLTASIIGNVFGFKAVKALRLEDMRIPVAYLKTFQGPATGIVVERERMDKFGRPFLGATVKPKLGLSGKNYGRVVYEGLRGGLDFLKDDENINSQPFMRWKERFLYSIEAVNRSIAATGEVKGHYMNVTAATMEEMYERAEFAKQLGTVIIMIDLVIGYTAIQTMGIWARKNDMILHLHRAGNSTYSRQKIHGMNFRVICKWMRMAGVDHIHAGTVVGKLEGDPLMIRGFYNTLLLPYLEVNLPQGIFFQQDWASLRKVTPVASGGIHCGQMHQLLDYLGNDVVLQFGGGTIGHPDGIQAGATANRVALESMVIARNEGRDYVAEGPQILRDAAKTCGPLQTALDLWKDITFNYTSTDTADFVETPTANVHHHHHH
Consider B1, for which the RUBISCO Activity (RuBP-dependent 14CO2 fixation), pTCP104-1 tobacco crude extract came to 0 mU/mg and the RUBISCO Activity (RuBP-dependent 14CO2 fixation), pTCP104-1 tobacco purified rubisco turned out to be 2.1 mU/mg.
